{"source": "paper PMC9313406", "origin": "cited, not measured here", "target": "ACE2 (dimeric) (Homo sapiens) (UniProt Q9BYF1)", "sequence (Q9BYF1 18-740)": "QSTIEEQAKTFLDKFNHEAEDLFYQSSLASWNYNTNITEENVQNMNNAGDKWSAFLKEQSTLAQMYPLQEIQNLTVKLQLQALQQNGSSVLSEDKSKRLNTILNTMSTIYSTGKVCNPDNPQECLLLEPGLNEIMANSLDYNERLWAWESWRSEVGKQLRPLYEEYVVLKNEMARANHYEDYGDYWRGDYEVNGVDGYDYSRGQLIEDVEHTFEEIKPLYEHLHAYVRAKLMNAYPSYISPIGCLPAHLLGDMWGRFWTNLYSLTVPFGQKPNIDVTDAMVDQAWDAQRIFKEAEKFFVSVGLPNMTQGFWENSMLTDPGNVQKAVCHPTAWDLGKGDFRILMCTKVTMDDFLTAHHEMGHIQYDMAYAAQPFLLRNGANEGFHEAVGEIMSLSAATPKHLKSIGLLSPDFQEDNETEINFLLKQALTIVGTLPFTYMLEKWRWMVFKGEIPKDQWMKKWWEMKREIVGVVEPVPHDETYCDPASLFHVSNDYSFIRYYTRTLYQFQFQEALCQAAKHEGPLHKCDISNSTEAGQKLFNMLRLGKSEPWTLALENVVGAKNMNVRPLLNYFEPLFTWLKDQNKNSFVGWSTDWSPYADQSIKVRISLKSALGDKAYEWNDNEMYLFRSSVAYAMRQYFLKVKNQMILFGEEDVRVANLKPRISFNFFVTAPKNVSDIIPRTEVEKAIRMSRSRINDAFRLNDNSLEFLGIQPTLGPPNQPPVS", "experiment": "SPR", "note": "pKd: −log10 of the molar value.", "data": [{"substance": "Spike protein (from UniProt P0DTC2)", "values": [{"measurement": "pKd", "value": 9.55}]}]}
